In patent publication US20150344580A1:
One block for each substance: values may come before it.

What was measured:
[1] = molecular target: human chemokine receptor CCR7 (UniProt P32248); experiment: flow cytometry, human CCR7 cells (summary table)
[2] = molecular target: human CCR7-CHO cells (UniProt P32248); experiment: FACS binding to CCR7-CHO cells
[3] = molecular target: CCR7 (JVM-13) (UniProt P32248); experiment: cell binding; JVM-13 cells
[4] = molecular target: CCR7 (CCL-AAT) (UniProt P32248); experiment: cell binding; CLL-AAT cells
[5] = molecular target: human chemokine receptor CCR7 (UniProt P32248); experiment: cell-based or functional assay
[6] = molecular target: mouse CCR7 (mouse) (UniProt P47774); experiment: flow cytometry, mouse CCR7 cells (summary table)
Chain of mouse CCR7 (mouse) (P47774 25-378): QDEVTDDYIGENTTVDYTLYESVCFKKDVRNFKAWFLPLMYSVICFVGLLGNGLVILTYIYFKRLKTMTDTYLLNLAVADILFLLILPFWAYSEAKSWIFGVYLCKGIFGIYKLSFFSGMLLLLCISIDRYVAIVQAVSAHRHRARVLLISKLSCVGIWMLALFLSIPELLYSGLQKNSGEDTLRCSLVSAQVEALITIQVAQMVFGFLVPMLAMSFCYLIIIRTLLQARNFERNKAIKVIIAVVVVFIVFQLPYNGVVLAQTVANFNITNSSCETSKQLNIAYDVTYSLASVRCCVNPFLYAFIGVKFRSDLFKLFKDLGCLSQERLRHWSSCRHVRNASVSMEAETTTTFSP

Chain of human chemokine receptor CCR7 (P32248 25-378 limits assumed): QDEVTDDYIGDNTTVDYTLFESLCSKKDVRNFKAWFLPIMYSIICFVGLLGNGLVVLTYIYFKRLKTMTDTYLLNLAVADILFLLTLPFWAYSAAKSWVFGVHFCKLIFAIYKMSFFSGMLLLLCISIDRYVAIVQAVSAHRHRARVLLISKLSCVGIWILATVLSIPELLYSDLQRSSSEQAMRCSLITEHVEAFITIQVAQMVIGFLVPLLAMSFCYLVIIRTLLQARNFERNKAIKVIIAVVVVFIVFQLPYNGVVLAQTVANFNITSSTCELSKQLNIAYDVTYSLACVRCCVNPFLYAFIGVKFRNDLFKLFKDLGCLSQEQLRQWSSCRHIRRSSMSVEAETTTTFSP
Chain of human CCR7-CHO cells (P32248 25-378): as the sequence (P32248 25-378 limits assumed) above
Chain of CCR7 (CCL-AAT) (P32248 25-378): as the sequence (P32248 25-378 limits assumed) above
Chain of CCR7 (JVM-13) (P32248 25-378): as the sequence (P32248 25-378 limits assumed) above

Substance: IgG 150503 R&D Systems
EC50 [2]: 5.9 nM

Substance: MAB197
Kd [3]: 20 nM
Kd [4]: 27 nM

Substance: Mouse monoclonal IgG2A anti-human CCR7, clone 150503 (R&D Systems MAB197) (antibody)
EC50 [1]: 6.9 nM
IC50 of inhibition of Ca-flux induced by 15 nM CCL19, Chem-1 CCR7 human cells [5]: 10 nM
inhibition of chemotaxis of CLL-AAT cells toward 30 nM CCL19, 500 nM IgG [5]: 60%

Substance: Rat IgG2A anti-mouse CCR7, clone 4B12 (R&D Systems MAB3477) (antibody)
EC50 [6]: 73.5 nM

Further lines, results first:

EC50 [1]: 3.4 nM
Substance: IgG 3D12 (eBioscience), anti-human CCR7 control (antibody)

EC50 [2]: 3.2 nM
Substance: IgG 3D12 eBioscience
